Results on one molecule are retold here after patent US20200325239A1, “Modulation of Aminopeptidase N/CD13 and Rheumatoid Arthritis” (THE REGENTS OF THE UNIVERSITY OF MICHIGAN, priority 2016, published 2020).

One assay relates to RA FLS. Description: FLS growth assay (Essen IncuCyte, percent confluence). The assay is classed as cell-based, human. The conditions noted are these: proliferation and migration. As for the experimental part: FIG. 5. […] FLS were seeded on 96-well plates overnight. An Essen Incucyte system was used for both growth (A) and migration (B) assays. Growth was calculated as the difference in percent confluence from time 0. Migration was measured in a scratch-wound assay using relative wound density. All data are expressed as a ratio to untreated FLS of the same cell line. mean±SEM n≥4 (*p≤0.05).
RA FLS were seeded on Essen Image Lock 96-well plates (Essen Bioscience, Ann Arbor, Mich.) overnight at either 3,000 cells/well for growth or 30,000 cells/well for migration. For growth, the 20% FBS CMRL media was removed and cells were washed 1× with PBS. 100 μl of medium alone (control) or medium containing anti-CD3 (25 or 50 ng/ml, OKT3, used as a non-reactive isotype control antibody in this experiment), anti-CD13 1D7 or WM15 (Biolegend, San Diego, Calif.) (25 or 50 ng/ml), or CD13 chemical inhibitors actinonin (Sigma-Aldrich, St. Louis, Mo.) or bestatin (Sigma-Aldrich, St. Louis, Mo.) (10 μM and 50 μM, respectively) was added to the wells. Images and confluence data were collected using an Essen IncuCyte (Essen Bioscience, Ann Arbor, Mich.). For the scratch-wound migration assay, wounds were made via the Essen scratch-wound tool in the seeded 96-well plate. Plates were then washed 2× with PBS and medium was added similar to the growth plates. Data were collected and the confluence or relative wound density calculated by the Essen IncuCyte.

Assay [1] has as its system C57Bl/6 mice. Description: Mouse model of inflammatory arthritis, intra-articular injection into knee joints. The assay is classed as in vivo. To be noted: 500 ng in 20 μl of PBS, 24 and 48 hours. As for the experimental part: To use the mouse model of inflammatory arthritis, female C57Bl/6 mice (8-10 weeks old, Harlan Laboratories) are anesthetized with ketamine (80-120 mg/kg body weight) and xylazine (5-10 mg/kg body weight) intraperitoneally, and the knee circumference is determined by caliper measurements before intra-articular injection, as described (67). The anesthetized mice receive 20 μl/knee joint of PBS and recombinant mouse CD13 (500 ng in 20 μl of PBS). Circumference measurements are obtained in a blinded manner. Mice are euthanized after 24 and 48 hours of the intraarticular injection. Mouse knees are measured before euthanasia. Hematoxylin and eosin (H&E) staining of the mouse knee cryosections is performed to determine the inflammatory response of CD13 (67). Immunofluorescence staining is also performed on cryosections using rat anti-mouse F4/80 antibody (GenTex) to detect MNs/macrophages. The number of F4/80-positive MNs/macrophages is calculated as the average number of cells in 3 fields (400X).

The test system of assay [2] is Human dermal microvascular endothelial cell (HMVEC). The assay can be described thus: HMVEC tube formation on growth factor-reduced Matrigel. The assay is classed as cell-based. The conditions noted are these: GFR Matrigel. As for the experimental part: FIG. 11. Human dermal microvascular endothelial cell (HMVEC) tube formation was assessed on growth factor-reduced Matrigel (GFR, BD Biosciences) with CD13. […] Arrows indicate the number of tubes formed in each group. n=number of replicates in each group. The number of tubes formed was quantitated by an observer blinded to the experimental groups.
HMVEC Matrigel tube formation assay. After finding that CD13 is chemotactic for HMVECs, the role of CD13 in RA is examined by performing HMVEC capillary morphogenesis assay on Matrigel tube with sham- or CD13-depleted RA SFs. Growth factor-reduced Matrigel (GFR, BD Biosciences) is used to perform this assay (56-58). CD13- or sham-depleted RA SFs are used as test groups (58). The chambers are incubated for 16 to 18 hours at 37° C. in a 5% CO2 humidified atmosphere. Cells are fixed and stained with Diff-Quik. The number of tubes formed is quantitated by an observer blinded to the experimental groups. bFGF (30 nM) and phosphate buffered saline (PBS) serve as positive and negative controls, respectively.

For assay [3], the system named is C57Bl/6 mice. Description: Matrigel plug angiogenesis assay in vivo (hemoglobin). The conditions noted are these: subcutaneous Matrigel 500 μl, plugs harvested after 7 days. The arrangement: species or system mouse. As for the experimental part: FIG. 13. To test the effect of CD13 in angiogenesis in vivo, Matrigel plug assays were performed using C57Bl/6 mice. Each mouse was given a subcutaneous injection of sterile GFR Matrigel (500 μl/injection) containing either CD13 or PBS, a negative control. Matrigel plugs were harvested after 7 days. Hemoglobin (Hb) was determined. […] Results are represented as the mean+SEM and *p<0.05 was considered significant. n=number of mice per group.
This assay is performed as described previously (56-58). RA SFs sham- or CD13-depleted (50 μl in 500 μl of Matrigel) are injected subcutaneously in C57Bl/6 mice. After 7 days, the mice are euthanized and the Matrigel plugs are removed, weighed, and processed for hemoglobin (Hb) measurement or immunofluorescence. Hemoglobin (Hb) concentration is determined either by the Drabkin method using a Drabkin's reagent kit (Sigma) or with the 3,3,5,5-tetramethylbenzidine substrate system (Sigma) (56, 61, 62). Hb values are normalized to plug weight.

Assay [4] relates to Human dermal microvascular endothelial cell (HMVEC). The assay can be described thus: HMVEC chemotaxis in modified Boyden chamber. The assay is classed as cell-based. The conditions noted are these: p<0.05 vs PBS; dose-dependent. As for the experimental part:
FIG. 10. Human dermal microvascular endothelial cell (HMVEC) chemotaxis was performed in a modified Boyden chamber using CD13 at various concentrations. […] CD13 induced HMVEC migration from 500-2000 ng/ml (p<0.05). Data represent the mean of 3 individual experiments±SEM. Three high-power fields (hpf) (×400) were counted in each replicate well and results were expressed as cells per hpf. PBS served as negative control.

For the next assay, the system named is normal human MN. Description: Normal human MN chemotaxis in modified Boyden chambers. The assay is classed as cell-based. To be noted: PBS negative control. The protocol:
FIG. 14. To evaluate the contribution of CD13 to RA inflammation by recruiting MNs, normal human MN chemotaxis assays were performed in modified Boyden chambers. […] PBS served as negative control. n=number of experiments. The results are expressed as mean+SEM and *p<0.05 was considered significant. n=number of replicates.

B1: CD13: recombinant Aminopeptidase N/CD13 used as stimulus; recombinant mouse CD13 planned for knee injection (protein, UniProt P15144 2-967, looked up)
Aminopeptidase N: AKGFYISKSLGILGILLGVAAVCTIIALSVVYSQEKNKNANSSPVASTTPSASATTNPASATTLDQSKAWNRYRLPNTLKPDSYRVTLRPYLTPNDRGLYVFKGSSTVRFTCKEATDVIIIHSKKLNYTLSQGHRVVLRGVGGSQPPDIDKTELVEPTEYLVVHLKGSLVKDSQYEMDSEFEGELADDLAGFYRSEYMEGNVRKVVATTQMQAADARKSFPCFDEPAMKAEFNITLIHPKDLTALSNMLPKGPSTPLPEDPNWNVTEFHTTPKMSTYLLAFIVSEFDYVEKQASNGVLIRIWARPSAIAAGHGDYALNVTGPILNFFAGHYDTPYPLPKSDQIGLPDFNAGAMENWGLVTYRENSLLFDPLSSSSSNKERVVTVIAHELAHQWFGNLVTIEWWNDLWLNEGFASYVEYLGADYAEPTWNLKDLMVLNDVYRVMAVDALASSHPLSTPASEINTPAQISELFDAISYSKGASVLRMLSSFLSEDVFKQGLASYLHTFAYQNTIYLNLWDHLQEAVNNRSIQLPTTVRDIMNRWTLQMGFPVITVDTSTGTLSQEHFLLDPDSNVTRPSEFNYVWIVPITSIRDGRQQQDYWLIDVRAQNDLFSTSGNEWVLLNLNVTGYYRVNYDEENWRKIQTQLQRDHSAIPVINRAQIINDAFNLASAHKVPVTLALNNTLFLIEERQYMPWEAALSSLSYFKLMFDRSEVYGPMKNYLKKQVTPLFIHFRNNTNNWREIPENLMDQYSEVNAISTACSNGVPECEEMVSGLFKQWMENPNNNPIHPNLRSTVYCNAIAQGGEEEWDFAWEQFRNATLVNEADKLRAALACSKELWILNRYLSYTLNPDLIRKQDATSTIISITNNVIGQGLVWDFVQSNWKKLFNDYGGGSFSFSNLIQAVTRRFSTEYELQQLEQFKKDNEETGFGSGTRALEQALEKTKANIKWVKENKEVVLQWFTENSK
For B1, in the assay on RA FLS, the “effect of additional rhCD13 on RA FLS proliferation and migration” value is given as “did not consistently affect the RA FLS”. The “increase in mouse knee circumference compared to PBS” value in the assay with C57Bl/6 mice [1] was 2-3 fold. The “EC tubes formed compared to PBS” value in assay [2] is “almost two-fold more numerous”. Also, in the assay with C57Bl/6 mice [3], the “hemoglobin (Hb) in Matrigel plugs compared to PBS” value is given as “more than a four-fold increase in Hb”. Further, the “concentrations at which HMVEC migration was induced” value in assay [4] lay in the range of 500 to 2000 ng/mL. Also, the MN migration result in the assay with normal human MN is on record as “concentration-dependent increase in MN migration”.
